The record followed here is the supplement of paper PMC12042874.

A short description of this data set: amyloid nucleation score (Sup35N fusion, yeast selection) (log enrichment); library NNK2; higher = more nucleation; inactive = no reads after selection. In short, it runs like this:
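Sup35N fusions to peptides of 20 random codons were expressed in psi-negative yeast, induced 24 hours with 100 μM copper sulfate, and grown 7 days at 30°C on medium lacking adenine and uracil. Input and output plasmid inserts were sequenced by Illumina. The nucleation score is the DiMSum log enrichment of output over input reads, centred on the mode score of non-aggregating sequences. Sequences with under 100 input reads were excluded.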

± gives the uncertainty stated by the source.

GNVFEHIQSMIRDSFEEHSG: the amyloid nucleation score is 0.889 ± 0.2. For LDLCTPRSNKTMVNHDINYF the value was -1.64 ± 0.77; for LRYLGWLACDYKTVGRSVTR, 0.978 ± 0.74. In the case of PYFCDIMNGTCRYSLYGFSM it was 0.37 ± 0.51; in that of FYTYDLSFMSNYSVLRVLCS, -1.48 ± 0.62; in that of FSQNIVSSRVVTYKMNCNGM, 3.72 ± 0.044. For MLLPLNYECGVQYS the value was -0.179 ± 0.37; for GWWVCWVL, -1.07 ± 1.1. STCTLKCWRWMPWTSFSFRC: the amyloid nucleation score stood at 1.3 ± 0.21. For NIGRYIIQVGSNGEANWHRV the value was “inactive”; for DRLGSRERDG, 0.74 ± 0.2; for PAPCTFRYLAITCGLTRYTC, -0.143 ± 0.34.

SNYSTGHGAGMEDRRLEMGG gave an amyloid nucleation score of 0.717 ± 0.49. In the case of QDGFRMYVLFDYNQCREFCS it was 1.23 ± 0.26; in that of RQLAQQYAHAFGYIFHSLYL, 1.19 ± 0.4. For GRGADKLTIG the value was 0.288 ± 0.36; for ANFQIFDLLME, -0.061 ± 0.43; for LHSATNG, 0.208 ± 0.37.

On to RTSCVYSHWQHNIERLLGRW, for which the amyloid nucleation score entry was “inactive”. In the case of LRWVKKRTAAQN it was -0.023 ± 0.63; in that of MVDTTRSTCISNSISWCAID, 5.28 ± 0.062.

Turning to GNFMTECLQARICGPDGEKK, the amyloid nucleation score stood at 5.12 ± 0.095. For IEKSMLVVLGINVRVSMGVG the value was 0.175 ± 0.24; for CRMSLRYTVPYSVQPLRGSL, 0.156 ± 0.41. In the case of KPWTYDMVCSRFTSMWFCDY it was 0.644 ± 0.38. In the case of NINTSYHNSPCPQYTLASMW it was -0.231 ± 1.

On to MVCLLSFPHPCGINLMVARN, for which the amyloid nucleation score is -0.147 ± 0.37. For GSSRLKGDGIVLVKCSWRYM the value was 1.13 ± 0.38; for FMRMALAGPDKF, -0.738 ± 1.1; for MVVEFCYVRYRAN, 0.716 ± 0.6. In the case of LIYGDASETLC it was 0.227 ± 0.43. In the case of IFFLPVTCTWGTQWRL it was 1.56 ± 0.15; in that of GRVCSRSFL, 2.1 ± 0.085. With MIDWGVIV, the amyloid nucleation score is -0.149 ± 0.76. In the case of TGWSGRGMVKSDPYRACGGD, the amyloid nucleation score is -0.11 ± 0.35.

For the substance LSQVSRFLSSTNLT, the amyloid nucleation score came out at 0.579 ± 0.47. For FIIMFIRLLSW the value was 1.12 ± 0.14; for ASHMRSDSAL, “inactive”.

Regarding RHVMSR, the amyloid nucleation score turned out to be 0.419 ± 0.23. For PFDFWRLISSLG the value was 0.531 ± 0.81; for MRFNDTENWGVSDVISSNDF, “inactive”; for LEVHKGGLNVLSHEGLDVET, 1.19 ± 0.4.

With IHSEFHKSY, the amyloid nucleation score entry is “inactive”. For FYVVFLNGVLLDYNDDLYGI the value was “inactive”; for KALQNSDGVGTRNLQTRHGY, 1.75 ± 0.29; for IAYATPPSHGAC, 1.32 ± 0.15. The substance ARNSGWTATSSVYPLKTPAT showed an amyloid nucleation score of 1.37 ± 0.42. In the case of LYFSSTYCLLVGKTDQIDCH it was “inactive”.

In turn, LLYYPIDGQGDGWLWCVYRV displayed an amyloid nucleation score of -0.067 ± 1.1.

Regarding LFCSYPNTASRKLAIGIVAS, the amyloid nucleation score is 0.438 ± 0.55. Turning to QMISLYAKQGVFPFGLSCSC, the amyloid nucleation score was determined as 2.02 ± 0.11. For ADCVSICVSYRRFHLAKYR the value was 2.73 ± 0.11; for FKDSDVEEWLNVKIIYWGVC, -0.604 ± 0.41.

Consider WCSNR, for which the amyloid nucleation score amounted to 0.153 ± 0.45. In the case of TYGWSLFERKLNPRGCWFPN it was -0.082 ± 0.63. In the case of IRECLVRSATSFLLDHKRRC it was -0.383 ± 1; in that of VNCPRIMGSIGRLFVVYTQM, 8.319 ± 0.06; in that of SFLLRWSRFVYICYSICCMI, -1.02 ± 0.55.

SPIYYIKGYFLLISKCFADR had an amyloid nucleation score of 4.56 ± 0.073. For DTSSYKTYDRLHQLYRNELR the value was 0.709 ± 0.23; for GLYTKT, 0.028 ± 0.14; for AASRWTWC, 1.5 ± 0.16. For DGAGKYTSPSDYDDRYRLAV the value was 0.466 ± 0.17; for QLFAVQSLCRKRRQLRWLPT, 0.463 ± 0.64; for MKRLPDSDIMVVPIVHKINL, “inactive”. In turn, NNVRMYLSFRAIVY gave an amyloid nucleation score of -1.19 ± 0.76. In the case of SVKILPVISTTPFGV it was -0.922 ± 0.39; in that of FDYVMFSDIVWSYTKNDALM, -0.111 ± 0.63; in that of KSPCIVQTTILYNYMAVVIS, 3.83 ± 0.12. With YETCSFKNPTFFPRNLYKMW, the amyloid nucleation score is -0.103 ± 0.46.

In turn, IWSCRGQLGSSFTPSGNCTG gave an amyloid nucleation score of 1.05 ± 0.37.

With FCSTTAICYKGEKQ, the amyloid nucleation score came out at 3.47 ± 0.14. As to FPCRGLGGVLW, the amyloid nucleation score was 1.97 ± 0.14. In turn, VVKDLRT had an amyloid nucleation score of 1.91 ± 0.48. For RWCGIGRLGVSNGIVPCWEM the value was 0.647 ± 0.17; for YLDTHWIYY, 0.056 ± 0.63; for FKSTYVHHYRVMPGSVVLLR, -1.2 ± 1.1. In turn, SWCFYMKGEWWYLLFHSNRS had an amyloid nucleation score of -1.73 ± 0.55. In the case of LMDERGMTKMTYFVYLLKKA, the amyloid nucleation score turned out to be 0.661 ± 0.23.

Substance YQGNIRVGISRSRK showed an amyloid nucleation score of 0.36 ± 0.41.

In turn, LRARTVVGEYCYSLYMQFVM gave an amyloid nucleation score of 0.213 ± 0.43. In the case of SVTVTSLWHGTEL it was -0.22 ± 1.1; in that of CSNGLYPNTVGRLEYS, -1.05 ± 0.39. In the case of DEGSNIGHGSLDIHRDCALL it was -0.264 ± 0.23; in that of LGPALFICSDEGDMPL, -0.598 ± 0.63; in that of FVFHWLFVSSRACILHPVVW, 0.604 ± 0.3. In the case of FYCWTTSDMFVRTSSIESP it was 1.09 ± 0.59; in that of VVVDGSLRVNLVSQGDPNNV, 1.07 ± 0.25; in that of NTLGSELLLFA, 1.75 ± 0.2.

As for LLLNILLCIDPYIPWCLSLR, the amyloid nucleation score was determined as 0.974 ± 0.57. In the case of MSRWTKIGNFDNIPSIPLVV it was -0.228 ± 0.36.

Substance LVNDHGVSVVSCGTD gave an amyloid nucleation score of 0.053 ± 0.79. For VFTILSCWGPYRCVVTRALL the value was “inactive”; for DTSVMCFGTYTWLFELFFQW, -0.334 ± 0.45. The substance IDHNTSRC had an amyloid nucleation score of 0.023 ± 0.76. In the case of NNVFELCERSKLPIKKFHDV it was -0.615 ± 1; in that of FYVVALGYKIVLCTMFYMLE, -1.16 ± 0.31. Regarding PNRIFFTLFCLTKYIIPMFM, the amyloid nucleation score was -1.33 ± 0.75.

WFAKRW: the amyloid nucleation score entry was “inactive”.

The substance GLSRFA came in with an amyloid nucleation score of -0.582 ± 1.1.

Substance VNCYTIWVGNSSRSVHSINA returned an amyloid nucleation score of 5.27 ± 0.083.

The substance LRLFYHVR had an amyloid nucleation score of -0.641 ± 0.33. In the case of CEEAVSIGLKGYEHVEKSAP it was -0.313 ± 0.76.
